T1: human CD25 (human, UniProt P01589 22-272)
T1 construct: In the functional assays it was native on T cells or SUDHL-1 cells; also called huCD25; hCD25
T1 sequence: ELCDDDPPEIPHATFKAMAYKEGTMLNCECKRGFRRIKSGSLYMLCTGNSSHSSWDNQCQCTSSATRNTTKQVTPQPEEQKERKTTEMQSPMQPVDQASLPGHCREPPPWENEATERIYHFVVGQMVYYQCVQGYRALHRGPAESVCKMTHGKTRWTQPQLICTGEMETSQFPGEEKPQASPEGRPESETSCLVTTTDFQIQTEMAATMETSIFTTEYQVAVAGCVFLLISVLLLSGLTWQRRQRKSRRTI

B1: B01 (antibody, V domains shown)
VH: QVQLVESGGGVVQPGRSLRLSCAASGFTFSNHAMAWVRQAPGKGLEWVAVISYDGSNKYYADSVKGRFTISRDNAKSTLYLQMNSLRAEDTAVYYCTTGLNSGYDWGQGTLVTVSS
VL: DIQMTQSPSSLSASVGDRVTITCRASQNISSFLNWYQQKPGEAPRRLIYGTNSLQSGVPSRFSGSGSGTDYTLTISSLQPEDFATYYCQQYNSWPWTFGQGTKLEIK
notes: detected with anti-human IgG (Fc specific); also called anti-CD25 antibody B01
B2: H01 (antibody, V domains shown)
VH: B1 VH with A75S, K76Q, S77N
VL: B1 VL with I29V, E42K, N52S, N92T
notes: detected with anti-human IgG (Fc specific); also called anti-CD25 antibody H01
B3: H08 (antibody, V domains shown)
VH: B1 VH with A75S, S77N
VL: B1 VL with N28S, I29V, F32Y, E42K, N92T
notes: detected with anti-human IgG (Fc specific); also called anti-CD25 antibody H08
B4: H07 (antibody, V domains shown)
VH: B1 VH with S77N, L100W
VL: B1 VL with N28S, I29V, S30N, E42K, N52S, N92T
notes: It was detected with anti-human IgG (Fc specific), and a human IgG1 isotype served as control; also called anti-CD25 antibody H07
B5: H02 (antibody, V domains shown)
VH: B1 VH with A61R, A75S, K76Q
VL: B1 VL with I29V
notes: detected with anti-human IgG (Fc specific); also called anti-CD25 antibody H02
B6: G09 (antibody, V domains shown)
VH: B1 VH with A61R, K76Q, S77N
VL: B1 VL with I29V
notes: detected with anti-human IgG (Fc specific); also called anti-CD25 antibody G09

Changes are numbered by the printed parent chain.

This assay addresses T1, human CD25. Nature of the assay: flow cytometry on HEK293 cells transiently transfected with huCD25; 3-fold dilutions from 500 nM; detection with anti-human IgG (Fc specific) FITC.
In the case of B1, the binding result was “binds”.
The value for B2 was “binds”; that for B3 was “binds”; that for B4 was “binds”.
The value for B5 was “binds”; that for B6 was “binds”.

Source of the values: US20240002522A1 (INSERM INSTITUT NATIONAL DE LA SANTE ET DE LA RECHERCHE …, published 2024).
